Laboratory results taken from the supplement of paper PMC10126150.
± gives the standard deviation of the averaged measurements.

system: ATP; test: switch fluorescence ratio, 500 uM ATP over buffer (Cy3 cluster intensity, sum of 5 cycles each) (fold (ratio)); higher = stronger signal-on switching upon ATP binding; sequences stand for … in TCGTCGGCAGCGTCAGATGTGTATAAGAGACAGTTTTTTTTTTTTTTTTTTTTTTTTT…TC; conditions: aptamer strand: ATP DNA aptamer (quencher-CACCTGGGGGAGTATTGCGGAGGAAGG + anchor), 100 nM annealed; ATP concentration: 500 uM
Method in brief: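 Between each of five buffer/ATP cycles, the flow-cell was stripped with NaOH and re-annealed. Each cycle imaged Cy3-labelled switching-strand clusters, annealed to 100 nM quencher-labelled ATP aptamer on a modified Illumina MiSeq flow-cell, first in selection buffer and then after 15 min with 500 uM ATP at 22 °C. The fluorescence ratio is summed target-cycle over summed buffer-cycle Cy3 intensity per cluster, averaged per switch-domain sequence, with clusters outside 100-1000 RFU excluded.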
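Further: ATP exposure 15 min at 22 °C before imaging.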

Row | Sequence | switch fluorescence ratio
1 | GTAGGGAGGG | 0.987 ± 0.013
2 | GTAGGGCATG | 0.96 ± 0.026
3 | GTAGGGGCCC | 1.02 ± 0.032
4 | GTAGGGGGCG | 1.01 ± 0.017
5 | GTAGGGGGGA | 0.987 ± 0.04
6 | GTAGGGTGCT | 1.042 ± 0.0064
7 | GTAGTACAAG | 0.986 ± 0.026
8 | GTAGTAGGGA | 1.01 ± 0.025
9 | GTAGTAGGGT | 1.01 ± 0.035
10 | GTAGTCACGA | 1.01 ± 0.048
11 | GTAGTGAGGA | 1.02 ± 0.029
12 | GTAGTGAGGG | 0.982 ± 0.037
13 | GTAGTGCCAG | 1.02 ± 0.042
14 | GTAGTTTTGA | 0.981 ± 0.018
15 | GTATAAGAGG | 0.991 ± 0.019
16 | GTATAAGGAT | 1.03 ± 0.019
17 | GTATACGCAG | 1.02 ± 0.026
18 | GTATACGGCA | 1.01 ± 0.022
19 | GTATAGGGAA | 1.004 ± 0.0071
20 | GTATCCCCCG | 1.03 ± 0.041
21 | GTATCCCGTG | 0.977 ± 0.018
22 | GTATCGAGGA | 0.963 ± 0.047
23 | GTATCTGATG | 1.004 ± 0.0027
24 | GTATGACGTA | 0.968 ± 0.037
25 | GTATGAGTTG | 1.02 ± 0.027

Row | Sequence | switch fluorescence ratio
26 | GTATGCGGAG | 0.996 ± 0.02
27 | GTATGCGGGG | 0.996 ± 0.02
28 | GTATGCTAGC | 1.004 ± 0.0086
29 | GTATGGATGT | 1.007 ± 0.0043
30 | GTATGGCAGG | 1.01 ± 0.018
31 | GTATGGGCGT | 1.03 ± 0.018
32 | GTATGTAGTA | 0.985 ± 0.0098
33 | GTATGTCGAG | 0.988 ± 0.014
34 | GTATGTCGTT | 0.968 ± 0.034
35 | GTATGTGTGC | 0.96 ± 0.03
36 | GTATTAAGGG | 1.02 ± 0.035
37 | GTATTAGCAG | 1.03 ± 0.026
38 | GTATTCAAGA | 1 ± 0.043
39 | GTATTCGCAA | 4.73 ± 0.9
40 | GTATTCGGGA | 0.963 ± 0.029
41 | GTATTGAGAT | 0.973 ± 0.063
42 | GTATTGATTT | 0.9769 ± 0.0055
43 | GTATTGGGCT | 0.98036 ± 0.00097
44 | GTATTTAAAT | 0.9855 ± 0.0018
45 | GTATTTACTC | 1.04 ± 0.034
46 | GTATTTCGGT | 0.972 ± 0.031
47 | GTATTTTCGC | 1.02 ± 0.017
48 | GTATTTTGCT | 0.979 ± 0.031
49 | GTCAAAAAGT | 0.985 ± 0.028
50 | GTCAAAAATT | 0.987 ± 0.01

Row | Sequence | switch fluorescence ratio
51 | GTCAAAGCCA | 1.02 ± 0.019
52 | GTCAACTGAG | 1.05 ± 0.04
53 | GTCAATTGCA | 0.999 ± 0.026
54 | GTCACGTATT | 1.16 ± 0.0099
55 | GTCACTAGTG | 1.028 ± 0.0026
56 | GTCAGAGTCT | 1.05 ± 0.021
57 | GTCAGAGTGG | 0.991 ± 0.024
58 | GTCAGCCTTT | 0.983 ± 0.025
59 | GTCAGCTAAC | 1.48 ± 0.053
60 | GTCAGCTTGC | 1 ± 0.025
61 | GTCAGGAATT | 0.9981 ± 0.0062
62 | GTCAGTGCTA | 1.0169 ± 0.001
63 | GTCAGTGGCT | 0.998 ± 0.018
64 | GTCAGTGGGC | 0.998 ± 0.0052
65 | GTCATAACAT | 1.018 ± 0.0065
66 | GTCATAGGTG | 1.28 ± 0.087
67 | GTCATTGGAG | 1.008 ± 0.0079
68 | GTCCTTGGTC | 0.982 ± 0.019
69 | GTCGAGGGGG | 0.997 ± 0.05
70 | GTCGATTAGT | 0.944 ± 0.033
71 | GTCGATTGGG | 1.001 ± 0.0012
72 | GTCGGACTAG | 1 ± 0.051
73 | GTCGGAGTCA | 1 ± 0.034
74 | GTCGGCGTAG | 1.03 ± 0.036
75 | GTCGGCGTTG | 0.9916 ± 0.0027

Row | Sequence | switch fluorescence ratio
76 | GTCGGGAGCC | 0.967 ± 0.018
77 | GTCGGGCCAG | 0.985 ± 0.025
78 | GTCGGGGAAG | 0.958 ± 0.013
79 | GTCGGGGGG | 1.01 ± 0.026
80 | GTCGGGGGTA | 0.992 ± 0.039
81 | GTCGTATTGG | 1.03 ± 0.03
82 | GTCGTATTTG | 0.9822 ± 0.0057
83 | GTCGTCCGGG | 0.986 ± 0.028
84 | GTCGTCTTAC | 1.05 ± 0.045
85 | GTCGTGGCGA | 1.01 ± 0.02
86 | GTCGTGGTTT | 0.982 ± 0.037
87 | GTCGTTAGGG | 0.963 ± 0.051
88 | GTCGTTGTTC | 1.03 ± 0.027
89 | GTCGTTTGCG | 1.012 ± 0.0048
90 | GTCGTTTTGG | 0.99 ± 0.029
91 | GTCTAACTGT | 0.994 ± 0.029
92 | GTCTAAGGAT | 0.995 ± 0.042
93 | GTCTATATTT | 1 ± 0.044
94 | GTCTGAACGG | 0.9762 ± 0.0081
95 | GTCTGTTATT | 1.01 ± 0.035
96 | GTCTTAACGA | 0.981 ± 0.015
97 | GTCTTGGGGG | 1 ± 0.023
98 | GTGAAAATTT | 1.07 ± 0.083
99 | GTGAAACGGG | 0.998 ± 0.07
100 | GTGAAAGCGT | 0.961 ± 0.016

Row | Sequence | switch fluorescence ratio
101 | GTGAAAGTCG | 0.9929 ± 0.0024
102 | GTGAACAGCA | 1.01 ± 0.025
103 | GTGAAGATTG | 1.02 ± 0.032
104 | GTGAATAGGG | 0.989 ± 0.028
105 | GTGAATGTAT | 1.02 ± 0.021
106 | GTGAATTTGT | 1.09 ± 0.15
107 | GTGACATTAA | 0.998 ± 0.03
108 | GTGACCGGCG | 1.03 ± 0.053
109 | GTGACTATGG | 0.96325 ± 0.00082
110 | GTGAGAGGGG | 1.008 ± 0.0069
111 | GTGAGGCGGT | 0.968 ± 0.017
112 | GTGAGGGATT | 1 ± 0.022
113 | GTGAGGGGTA | 0.975 ± 0.033
114 | GTGAGGGTGA | 1 ± 0.011
115 | GTGAGTCTAA | 0.993 ± 0.018
116 | GTGAGTGTCA | 1 ± 0.03
117 | GTGAGTGTTT | 0.99 ± 0.011
118 | GTGATAAATG | 0.956 ± 0.021
119 | GTGATAAGAC | 1.042 ± 0.0085
120 | GTGATAGGGC | 0.999 ± 0.025
121 | GTGATATTGT | 1.01 ± 0.011
122 | GTGATCGGGT | 1.02 ± 0.015
123 | GTGATCTGGG | 0.9689 ± 0.0053
124 | GTGATGCTTG | 0.998 ± 0.037
125 | GTGATGGGGA | 0.9895 ± 0.0095

Row | Sequence | switch fluorescence ratio
126 | GTGATTACTG | 0.97 ± 0.011
127 | GTGATTAGGG | 0.968 ± 0.022
128 | GTGATTTAGA | 0.9969 ± 0.0054
129 | GTGATTTGGG | 1.01 ± 0.0076
130 | GTGCAAGGGT | 1.01 ± 0.029
131 | GTGCCATGTT | 0.9816 ± 0.0083
132 | GTGCCCAACG | 1.03 ± 0.03
133 | GTGCGACGTT | 0.965 ± 0.08
134 | GTGCTATCTA | 1 ± 0.023
135 | GTGCTCTTAC | 1.11 ± 0.014
136 | GTGCTTCTTA | 0.992 ± 0.025
137 | GTGCTTCTTT | 0.99 ± 0.011
138 | GTGGAAGTTG | 0.949 ± 0.041
139 | GTGGAATAAT | 0.981 ± 0.015
140 | GTGGACATAT | 0.991 ± 0.015
141 | GTGGACTAGT | 1.02 ± 0.026
142 | GTGGAGGGGA | 1.01 ± 0.043
143 | GTGGATTTGG | 1.019 ± 0.0056
144 | GTGGATTTTC | 1 ± 0.062
145 | GTGGCAGGGG | 1.36 ± 0.63
146 | GTGGCATACT | 1.12 ± 0.016
147 | GTGGCATGGG | 1 ± 0.014
148 | GTGGCCCTAT | 0.998 ± 0.027
149 | GTGGCTGGGA | 0.974 ± 0.026
150 | GTGGCTTGGG | 1.02 ± 0.018

Row | Sequence | switch fluorescence ratio
151 | GTGGGAAAGG | 0.9715 ± 0.0057
152 | GTGGGAACAG | 0.979 ± 0.011
153 | GTGGGAATTA | 0.996 ± 0.025
154 | GTGGGACGAG | 0.971 ± 0.018
155 | GTGGGAGGGA | 1.02 ± 0.043
156 | GTGGGAGGTT | 0.948 ± 0.036
157 | GTGGGATCCG | 0.998 ± 0.014
158 | GTGGGATGAG | 1.01 ± 0.022
159 | GTGGGATGGG | 0.973 ± 0.019
160 | GTGGGCCGAG | 1.021 ± 0.0076
161 | GTGGGCGCCG | 0.987 ± 0.023
162 | GTGGGCGGGG | 0.979 ± 0.031
163 | GTGGGGAATA | 1.03 ± 0.043
164 | GTGGGGAGCT | 1.03 ± 0.061
165 | GTGGGGATGT | 1.01 ± 0.024
166 | GTGGGGCAAA | 1 ± 0.043
167 | GTGGGGCATA | 0.982 ± 0.017
168 | GTGGGGCCGC | 0.979 ± 0.036
169 | GTGGGGGCCC | 0.993 ± 0.017
170 | GTGGGGGCGG | 1.01 ± 0.022
171 | GTGGGGGCTG | 0.9878 ± 0.0047
172 | GTGGGGGGTC | 1.01 ± 0.062
173 | GTGGGGTGGG | 0.986 ± 0.029
174 | GTGGGTGGGA | 0.982 ± 0.046
175 | GTGGGTGTCC | 1.01 ± 0.017

Row | Sequence | switch fluorescence ratio
176 | GTGGGTTGGA | 0.993 ± 0.033
177 | GTGGGTTTGG | 0.999 ± 0.049
178 | GTGGTAAAAG | 0.984 ± 0.013
179 | GTGGTAAGAT | 0.991 ± 0.037
180 | GTGGTAAGCG | 0.995 ± 0.065
181 | GTGGTACGTA | 1.02 ± 0.06
182 | GTGGTACTGG | 0.9683 ± 0.0066
183 | GTGGTAGGCG | 0.975 ± 0.014
184 | GTGGTAGGGT | 1.02 ± 0.02
185 | GTGGTATCCG | 0.973 ± 0.058
186 | GTGGTATCGG | 0.989 ± 0.029
187 | GTGGTATGTC | 1.01 ± 0.07
188 | GTGGTCGAGT | 0.989 ± 0.01
189 | GTGGTCGGCA | 0.996 ± 0.011
190 | GTGGTCTTGA | 0.981 ± 0.028
191 | GTGGTGGCAG | 0.979 ± 0.015
192 | GTGGTTATGC | 1.02 ± 0.033
193 | GTGGTTCTAT | 0.996 ± 0.026
194 | GTGGTTGGGA | 0.992 ± 0.029
195 | GTGGTTTATA | 1.01 ± 0.021
196 | GTGTAACAGA | 1 ± 0.013
197 | GTGTAAGAGA | 1.006 ± 0.0081
198 | GTGTAAGCAG | 0.995 ± 0.01
199 | GTGTAAGGTT | 0.9935 ± 0.0066
200 | GTGTAATAAG | 0.99 ± 0.031
